Residue numbers refer to the chain shown, from its start.
B1: Hu3F6-H3/Hu3F6-L5: humanized anti-A2aR IgG1 FES antibody; HCVR SEQ ID NO:60, LCVR SEQ ID NO:80 (antibody, V domains shown)
VH: EVQLVQSGAEVKKPGASVKVSCKTSGFAFTSYWMNWVRQAPGQGLEWIGRIDPSDSEAHYHHKFWGRATLTVDTSSSTVYMELSSLRSEDTAVYYCLRSLYGKGDYWGHGTTVTVSS
VL: DVVMTQTPLSLSVTPGQPASISCRSSQSLVHRNGNTYLEWYLQKPGQSPQLLIYKVSNRFSGVPDRFSGSGSGTDFTLKISRVEAEDVGVYYCYQGSHVPLTFGGGTKVEIK
B2: Hu3F6-H5/Hu3F6-L5: humanized anti-A2aR IgG1 FES antibody; HCVR SEQ ID NO:62, LCVR SEQ ID NO:80 (antibody, V domains shown)
VH: B1 VH with H61A, T74K
VL: B1 VL

Columns and labels:
[1] = tested on: cynomolgus A2aR on the cell surface of cynomolgus PBMCs; assay: Binding of anti-A2aR antibodies to cynomolgus PBMC subsets (CD4 T, CD8 T, NK, NKT cells; FACS); settings: for binding (cross-reactivity) to cynomolgus T cells (CD4+, CD8+), NK cells and NKT cells: cynomolgus PBMCs, FACS
Protocol: (§1) Human and cynomolgus PBMCs were purchased from Cytologics LLC (San Diego, CA) and iQ Biosciences (Berkeley, CA), respectively. 10^6 human and/or cynomolgus PBMCs in 100 μl FACS buffer (1×DPBS, 2% FBS) were incubated with anti-A2aR antibodies at 4° C. for 30 minutes. After wash, samples were stained with PE-conjugated goat-anti-human Fc antibody (1:400, Jackson ImmunoResearch Labs, Cat. 109-116-098) and other surface markers using cynomolgus cross-reactive APC/cy7-anti-CD3 (BD Bioscience, Cat. 557757), BV421-anti-CD4 (Biolegend, Cat. 317433), BV650-anti-CD8 (Biolegend, Cat. 301042) and BV711-anti-CD56 (BD Bioscience, Cat. 742661) for 30 minutes, and Zombie Green fixable Viability dye (Biolegend, Cat. 423111) were used according to manufacturer's instruction to define live immune cell subsets. After wash with FACS buffer, cells were analyzed on FACSAria (BD). Data was analyzed using Flowjo (Becton Dickinson).

[2] = target: human A2aR (Homo sapiens, UniProt P29274); assay: In vitro blocking activity of purified humanized anti-A2aR antibodies and SMIs (cAMP-Glo, adenosine or NECA); assay type: cell-based; settings: purified antibodies
Protocol: The activity of A2aR is mediated by Gas protein which activates adenylyl cyclase, resulting in the synthesis of intracellular cAMP. The level of cAMP correlates with the respective adenosine (agonist) level. cAMP can be detected using a variety of commercial cAMP assay kit.
Briefly, clear flat bottom 96 well tissue culture plate (Fisher Scientific) was coated with 50 μl per well of 50 µg/ml poly-D-lysine (Gibco, Cat. A3890401) solution at 4° C. overnight. After 3 washes with sterile endotoxin free water, the coated culture plate was left uncovered in a biosafety cabinet to dry. Freshly thawed A2aR-overexpressing HEK293 cell (BPS Bioscience) were seeded on poly-D-lysine coated plates at 10^4/well in 100 μl culture medium for 24 hours in 37° C., 5% CO2 incubator. After wash with warmed PBS once, one hundred microliters (100 μl) starvation medium (MEM (Hyclone Cat. SH30024.01)+2% charcoal stripped serum (Thermo Fisher, Cat. A3382101)+1% Penicillin/Streptomycin) were added for overnight culture in an incubator at 37° C. and 5% CO2. […] Plates were read to obtain Relative Light Unit (RLU) on SpectraMax 5 reader (Molecular Device). Data were analyzed using Prism software.

[3] = target: T1, human A2aR on the cell surface of human PBMCs (Homo sapiens, UniProt P29274); assay: Binding of anti-A2aR antibodies to human PBMC subsets (CD4 T, CD8 T, NK, NKT cells; FACS); settings: for binding to human T cells (CD4, CD8), NK cells and NKT cells: human PBMCs, FACS
T1 construct: host or cells: human PBMCs (CD4 T, CD8 T, NK, NKT subsets)
Protocol: as §1

cynomolgus A2aR on the cell surface of cynomolgus PBMCs, sequence (as listed by the source): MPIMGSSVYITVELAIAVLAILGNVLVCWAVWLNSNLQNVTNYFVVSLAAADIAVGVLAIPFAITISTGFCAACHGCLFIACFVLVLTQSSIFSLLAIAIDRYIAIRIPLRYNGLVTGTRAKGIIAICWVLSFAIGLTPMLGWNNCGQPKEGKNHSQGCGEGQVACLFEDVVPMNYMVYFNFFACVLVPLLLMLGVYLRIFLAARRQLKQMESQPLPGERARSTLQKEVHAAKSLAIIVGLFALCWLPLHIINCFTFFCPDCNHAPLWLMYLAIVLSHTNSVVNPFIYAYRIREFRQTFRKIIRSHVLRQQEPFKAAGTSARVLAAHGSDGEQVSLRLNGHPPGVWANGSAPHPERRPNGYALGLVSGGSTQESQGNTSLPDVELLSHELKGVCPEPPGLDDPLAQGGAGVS
T1 sequence (P29274 whole entry): as the sequence (as listed by the source) above, with N263S, T371A, S379G, G407D counted along it
human A2aR, sequence (P29274 whole entry): as the sequence (as listed by the source) above, with N263S, T371A, S379G, G407D counted along it

Molecule | % of A2aR+ CD4+ T cells ([1]; Cynomolgus 1 PBMC) [%] | % of A2aR+ CD8+ T cells ([1]; Cynomolgus 1 PBMC) [%] | % of A2aR+ NK cells ([1]; Cynomolgus 1 PBMC) [%] | % of A2aR+ NKT cells ([1]; Cynomolgus 1 PBMC) [%] | % of A2aR+ CD4+ T cells ([1]; Cynomolgus 2 PBMC) [%] | % of A2aR+ CD8+ T cells ([1]; Cynomolgus 2 PBMC) [%] | % of A2aR+ NK cells ([1]; Cynomolgus 2 PBMC) [%] | % of A2aR+ NKT cells ([1]; Cynomolgus 2 PBMC) [%] | binding (cross-reactivity) to cynomolgus T cells (CD4+, CD8+), NK cells and NKT cells [1] | blocking of the activities of human A2aR expressed on cell surface (RLU, FIG. 1A, 1B) [2] | % of A2aR+ CD4+ T cells ([3]; human 1 PBMC) [%] | % of A2aR+ CD8+ T cells ([3]; human 1 PBMC) [%] | % of A2aR+ NK cells ([3]; human 1 PBMC) [%] | % of A2aR+ NKT cells ([3]; human 1 PBMC) [%] | % of A2aR+ CD4+ T cells ([3]; human 2 PBMC) [%] | % of A2aR+ CD8+ T cells ([3]; human 2 PBMC) [%] | % of A2aR+ NK cells ([3]; human 2 PBMC) [%] | % of A2aR+ NKT cells ([3]; human 2 PBMC) [%] | binding to human T cells (CD4, CD8), NK cells and NKT cells [3]
B1 | 1.65 | 0.05 | 6.52 | 1.06 | 1.20 | 0.11 | 2.07 | 0.45 | bound to various human and cynomolgus CD4+ and CD8+ T cells | blocked the activities of human A2aR expressed on cell surface | 0.43 | 0.04 | 0.69 | 0.46 | 0.44 | 0.04 | 0.75 | 0.55 | bound to various human and cynomolgus CD4+ and CD8+ T cells
B2 | 4.76 | 0.15 | 5.71 | 4.14 | 10.6 | 0.41 | 2.92 | 4.28 | bound to various human and cynomolgus CD4+ and CD8+ T cells | blocked the activities of human A2aR expressed on cell surface | – | 0.05 | 0.66 | 0.42 | – | 0.03 | 0.62 | 0.48 | bound to various human and cynomolgus CD4+ and CD8+ T cells
